B1: Methylmalonic aciduria type A protein, mitochondrial (Homo sapiens), Q8IVH4 (parent)
chain: MPMLLPHPHQHFLKGLLRAPFRCYHFIFHSSTHLGSGIPCAQPFNSLGLHCTKWMLLSDGLKRKLCVQTTLKDHTEGLSDKEQRFVDKLYTGLIQGQRACLAEAITLVESTHSRKKELAQVLLQKVLLYHREQEQSNKGKPLAFRVGLSGPPGAGKSTFIEYFGKMLTERGHKLSVLAVDPSSCTSGGSLLGDKTRMTELSRDMNAYIRPSPTRGTLGGVTRTTNEAILLCEGAGYDIILIETVGVGQSEFAVADMVDMFVLLLPPAGGDELQGIKRGIIEMADLVAVTKSDGDLIVPARRIQAEYVSALKLLRKRSQVWKPKVIRISARSGEGISEMWDKMKDFQDLMLASGELTAKRRKQQKVWMWNLIQESVLEHFRTHPTVREQIPLLEQKVLIGALSPGLAADFLLKAFKSRD
partner: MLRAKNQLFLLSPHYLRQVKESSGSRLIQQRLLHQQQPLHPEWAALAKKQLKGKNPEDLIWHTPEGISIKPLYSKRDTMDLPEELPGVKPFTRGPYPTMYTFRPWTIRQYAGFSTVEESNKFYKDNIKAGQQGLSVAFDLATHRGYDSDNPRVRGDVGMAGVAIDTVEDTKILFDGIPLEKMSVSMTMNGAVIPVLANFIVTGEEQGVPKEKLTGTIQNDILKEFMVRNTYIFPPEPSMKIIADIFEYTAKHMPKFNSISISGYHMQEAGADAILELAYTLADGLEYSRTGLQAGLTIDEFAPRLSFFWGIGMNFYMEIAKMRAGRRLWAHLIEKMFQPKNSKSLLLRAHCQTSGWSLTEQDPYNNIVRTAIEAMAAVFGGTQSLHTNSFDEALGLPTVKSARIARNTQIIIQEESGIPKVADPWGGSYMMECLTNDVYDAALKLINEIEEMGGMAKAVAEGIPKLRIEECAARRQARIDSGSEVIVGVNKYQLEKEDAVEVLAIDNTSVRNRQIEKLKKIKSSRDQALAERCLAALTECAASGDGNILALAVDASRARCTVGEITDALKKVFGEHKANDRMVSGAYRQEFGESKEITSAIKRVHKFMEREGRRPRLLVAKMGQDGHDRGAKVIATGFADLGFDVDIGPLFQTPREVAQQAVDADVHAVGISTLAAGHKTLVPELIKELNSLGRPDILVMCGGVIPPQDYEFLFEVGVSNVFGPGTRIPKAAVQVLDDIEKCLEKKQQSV

In the assay the parent is B1. To be noted: with muta_human MMUT.
Take MPMLLPHPHQHFLKGLLRAPFRCYHFIFHSSTHLGSGIPCAQPFNSLGLHCTKWMLLSDGLKRKLCVQTTLKDHTEGLSDKEQRFVDKLYTGLIQGQRACLAEAITLVESTHSRKKELAQVLLQKVLLYHREQEQSNKGKPLAFRVGLSGPPGAGKSTFIEYFGKMLTERGHKLSVLAVDPSSCTSGGSLLGDKTRMTELSRDMNAYIRPSPTRGTLGGVTRTTNEAILLCEGAGYDIILIETVGVGQSEFAVADMVDMFVLLLPPAGGDELQSIKRGIIEMADLVAVTKSDGDLIVPARRIQAEYVSALKLLRKRSQVWKPKVIRISARSGEGISEMWDKMKDFQDLMLASGELTAKRRKQQKVWMWNLIQESVLEHFRTHPTVREQIPLLEQKVLIGALSPGLAADFLLKAFKSRD [G274S]: the “effect of a mutation on the interaction” value is given as “decreasing interaction strength”.
Turning to MPMLLPHPHQHFLKGLLRAPFRCYHFIFHSSTHLGSGIPCAQPFNSLGLHCTKWMLLSDGLKRKLCVQTTLKDHTEGLSDKEQRFVDKLYTGLIQGQRACLAEAITLVESTHSRKKELAQVLLQKVLLYHREQEQSNKGKPLAFRVGLSGPPGAGKSTFIEYFGKMLTERGHKLSVLAVDPSSCTSGGSLLGDKTRMTELSRDMNACIRPSPTRGTLGGVTRTTNEAILLCEGAGYDIILIETVGVGQSEFAVADMVDMFVLLLPPAGGDELQGIKRGIIEMADLVAVTKSDGDLIVPARRIQAEYVSALKLLRKRSQVWKPKVIRISARSGEGISEMWDKMKDFQDLMLASGELTAKRRKQQKVWMWNLIQESVLEHFRTHPTVREQIPLLEQKVLIGALSPGLAADFLLKAFKSRD [Y207C], the “effect of a mutation on the interaction” value is “disrupting interaction strength”.
Regarding MPMLLPHPHQHFLKGLLRAPFRCYHFIFHSSTHLGSGIPCAQPFNSLGLHCTKWMLLSDGLKRKLCVQTTLKDHTEGLSDKEQRFVDKLYTGLIQGQRACLAEAITLVESTHSRKKELAQVLLQKVLLYHREQEQSNKGKPLAFRVGLSGPPGAGKSTFIEYFGKMLTERGHKLSVLAVDPSSCTSGGSLLGDKTRMTELSRDMNAYISPSPTRGTLGGVTRTTNEAILLCEGAGYDIILIETVGVGQSEFAVADMVDMFVLLLPPAGGDELQGIKRGIIEMADLVAVTKSDGDLIVPARRIQAEYVSALKLLRKRSQVWKPKVIRISARSGEGISEMWDKMKDFQDLMLASGELTAKRRKQQKVWMWNLIQESVLEHFRTHPTVREQIPLLEQKVLIGALSPGLAADFLLKAFKSRD [R209S], the “effect of a mutation on the interaction” value is “disrupting interaction strength”.
In the case of MPMLLPHPHQHFLKGLLRAPFRCYHFIFHSSTHLGSGIPCAQPFNSLGLHCTKWMLLSDGLKRKLCVQTTLKDHTEGLSDKEQRFVDKLYTGLIQGQRACLAEAITLVESTHSRKKELAQVLLQKVLLYHREQEQSNKGKPLAFRVGLSGPPGAGKSTFIEYFGKMLTERGHKLSVLAVDPSSCTSGGSLLGDKTRMTELSRDMNAYIRPSPTRGTLGGVTRTTNEAILLCEGAGYDIILIETVGVGQSEFAVADMVDMFVLLLPPAGGDELQGIKRGIIEMADLVAVTKSVGDLIVPARRIQAEYVSALKLLRKRSQVWKPKVIRISARSGEGISEMWDKMKDFQDLMLASGELTAKRRKQQKVWMWNLIQESVLEHFRTHPTVREQIPLLEQKVLIGALSPGLAADFLLKAFKSRD [D292V], the “effect of a mutation on the interaction” value is “disrupting interaction strength”.
For the variant MPMLLPHPHQHFLKGLLRAPFRCYHFIFHSSTHLGSGIPCAQPFNSLGLHCTKWMLLSDGLKRKLCVQTTLKDHTEGLSDKEQRFVDKLYTGLIQGQRACLAEAITLVESTHSRKKELAQVLLQKVLLYHREQEQSNKGKPLAFRVGLSGPPGAGKSTFIEYFGKMLTERGHKLSVLAVDPSSCTSGGSLLGDKTRMTELSRDMNAYIRPSPTRGTLGGVTRTTNEAILLCEGAGYDIILIETVGVGQSEFAVADMVDMFVLLLPPAGGDELQGIKRGIIEMADLVAVTKSDGDLIVPARRIQAEYVSALKLLRKRSQVWKPKVIRISARSGEGISEMWDKMKDFQDLMLASGELTAKGRKQQKVWMWNLIQESVLEHFRTHPTVREQIPLLEQKVLIGALSPGLAADFLLKAFKSRD [R359G], the “effect of a mutation on the interaction” value is on record as “decreasing interaction strength”.
As to MPMLLPHPHQHFLKGLLRAPFRCYHFIFHSSTHLGSGIPCAQPFNSLGLHCTKWMLLSDGLKRKLCVQTTLKDHTEGLSDKEQRFVDKLYTGLIQGQRACLAEAITLVESTHSRKKELAQVLLQKVLLYHREQEQSNKGKPLAFRVGLSGPPGAGKSTFIEYFGKMLTERGHKLSVLAVDPSSCTSGGSLLGDKTRMTELSRDMNAYIRPSPTRGTLGGVTRTTNEAILLCEGAGYDIILIETVGVGQSEFAVADMVDMFVLLLPPAGGDELQGIERGIIEMADLVAVTKSDGDLIVPARRIQAEYVSALKLLRKRSQVWKPKVIRISARSGEGISEMWDKMKDFQDLMLASGELTAKRRKQQKVWMWNLIQESVLEHFRTHPTVREQIPLLEQKVLIGALSPGLAADFLLKAFKSRD [K276E], the “effect of a mutation on the interaction” value is recorded as “decreasing interaction strength”.
As to MPMLLPHPHQHFLKGLLRAPFRCYHFIFHSSTHLGSGIPCAQPFNSLGLHCTKWMLLSDGLKRKLCVQTTLKDHTEGLSDKEQRFVDKLYTGLIQGQRACLAEAITLVESTHSRKKELAQVLLQKVLLYHREQEQSNKGKPLAFRVGLSGPPGAGKSTFIEYFGKMLTERGHKLSVLAVDPSSCTSGRSLLGDKTRMTELSRDMNAYIRPSPTRGTLGGVTRTTNEAILLCEGAGYDIILIETVGVGQSEFAVADMVDMFVLLLPPAGGDELQGIKRGIIEMADLVAVTKSDGDLIVPARRIQAEYVSALKLLRKRSQVWKPKVIRISARSGEGISEMWDKMKDFQDLMLASGELTAKRRKQQKVWMWNLIQESVLEHFRTHPTVREQIPLLEQKVLIGALSPGLAADFLLKAFKSRD [G188R], the “effect of a mutation on the interaction” value is recorded as “disrupting interaction strength”.
